This is an account of results in patent publication US20240116985A1 (published 2024).

Starred links: 1 amine or outer side, 2 acyl side, 3 side chain; linkers in the order of their positions; H or OH if unused. Positions of bridges follow the written chain, without caps; N, C: chain ends. Non-standard residues stand in square brackets, D forms with d. Primed or numbered codes have the meaning given here. B5(15) = 2-amino-2-(pent-4-en-1-yl)hept-6-enoic acid (2,2-bis(4-pentenyl)glycine), stitching residue bearing two staples, C=CCCCC(CCCC=C)(N[*:1])C(=O)[*:2]; B5(23) = 2-amino-2-(pent-4-en-1-yl)hept-6-enoic acid (2,2-bis(4-pentenyl)glycine), stitching residue, C=CCCCC(CCCC=C)(N[*:1])C(=O)[*:2]; Bta = N[C@@H](Cc1csc2ccccc12)C(=O)O; αAllylPro = C=CC[C@@]1(C(=O)O)CCCN1; S8 = C=CCCCCCC[C@](C)(N)C(=O)O; hSer = N[C@@H](CCO)C(=O)O

In experiment [1] the target is T1, B-cat-Halo (beta-catenin HaloTag NanoBRET construct expressed in HEK293 cells) (UniProt P35222 1-781).
T1 sequence (looked up): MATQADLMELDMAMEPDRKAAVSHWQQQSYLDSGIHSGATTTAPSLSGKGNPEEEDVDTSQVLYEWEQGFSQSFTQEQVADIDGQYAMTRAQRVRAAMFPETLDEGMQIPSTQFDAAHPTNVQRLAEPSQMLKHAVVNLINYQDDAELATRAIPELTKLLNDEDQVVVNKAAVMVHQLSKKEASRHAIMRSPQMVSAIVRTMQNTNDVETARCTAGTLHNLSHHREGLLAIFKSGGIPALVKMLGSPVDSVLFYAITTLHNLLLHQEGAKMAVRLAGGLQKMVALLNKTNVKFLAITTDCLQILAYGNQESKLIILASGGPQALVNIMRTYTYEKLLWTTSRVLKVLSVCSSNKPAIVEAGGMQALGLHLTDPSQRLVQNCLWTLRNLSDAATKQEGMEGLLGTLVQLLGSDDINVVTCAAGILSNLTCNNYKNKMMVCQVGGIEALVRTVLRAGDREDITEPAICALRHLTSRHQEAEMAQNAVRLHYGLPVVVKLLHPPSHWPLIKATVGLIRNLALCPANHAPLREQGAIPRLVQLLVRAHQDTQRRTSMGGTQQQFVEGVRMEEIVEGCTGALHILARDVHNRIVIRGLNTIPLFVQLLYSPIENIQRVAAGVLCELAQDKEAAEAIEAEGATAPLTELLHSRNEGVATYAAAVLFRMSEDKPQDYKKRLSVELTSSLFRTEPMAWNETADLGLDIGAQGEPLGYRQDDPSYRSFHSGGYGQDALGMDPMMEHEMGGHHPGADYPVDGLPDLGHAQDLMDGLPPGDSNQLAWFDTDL
In words: cell-based or functional assay.

Experiment [2] concerns the target T2, full-length beta-Catenin (Uniprot ID P35222) (Homo sapiens (Human), UniProt P35222 2-781).
T2 construct: full-length; also called bCat; B-Catenin
T2 sequence: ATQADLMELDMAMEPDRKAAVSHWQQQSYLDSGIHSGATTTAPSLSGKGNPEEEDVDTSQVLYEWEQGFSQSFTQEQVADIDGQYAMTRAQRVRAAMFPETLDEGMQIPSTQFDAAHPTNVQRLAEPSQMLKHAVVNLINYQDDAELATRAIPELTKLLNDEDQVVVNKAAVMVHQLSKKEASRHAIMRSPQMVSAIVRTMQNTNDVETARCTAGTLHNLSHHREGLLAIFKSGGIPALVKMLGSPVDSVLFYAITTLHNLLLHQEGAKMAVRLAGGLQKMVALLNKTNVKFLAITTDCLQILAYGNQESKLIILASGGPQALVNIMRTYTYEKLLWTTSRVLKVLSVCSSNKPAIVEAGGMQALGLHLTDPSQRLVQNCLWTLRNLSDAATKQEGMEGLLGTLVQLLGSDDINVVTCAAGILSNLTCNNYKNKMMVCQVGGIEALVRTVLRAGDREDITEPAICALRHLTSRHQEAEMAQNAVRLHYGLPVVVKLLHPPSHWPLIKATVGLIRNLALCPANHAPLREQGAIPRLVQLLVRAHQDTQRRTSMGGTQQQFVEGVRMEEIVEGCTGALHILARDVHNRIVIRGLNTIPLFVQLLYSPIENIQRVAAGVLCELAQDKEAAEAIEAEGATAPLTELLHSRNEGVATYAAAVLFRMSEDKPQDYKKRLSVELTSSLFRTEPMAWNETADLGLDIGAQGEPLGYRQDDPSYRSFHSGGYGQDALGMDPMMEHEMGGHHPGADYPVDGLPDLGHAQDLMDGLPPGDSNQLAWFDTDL
In words: fluorescence polarization competition; displaces 5FAM-TCF4(10-53) from full-length beta-catenin. On the procedure:
(§1) The plate was incubated protected from light for 60 minutes at 20° C. prior to read. Reads were performed on a CLARIOstar plate reader (BMG Labtech) in duplicate, and data were fitted to a 1:1 binding model with hill slope using an in-house script. All provided concentrations are final concentrations.

Experiment [3] deals with T3, full-length beta-Catenin (Uniprot ID P35222) (Homo sapiens (Human), UniProt P35222 1-781).
T3 construct: The assay protocols call it full-length; also called B-Catenin; bCat
T3 sequence: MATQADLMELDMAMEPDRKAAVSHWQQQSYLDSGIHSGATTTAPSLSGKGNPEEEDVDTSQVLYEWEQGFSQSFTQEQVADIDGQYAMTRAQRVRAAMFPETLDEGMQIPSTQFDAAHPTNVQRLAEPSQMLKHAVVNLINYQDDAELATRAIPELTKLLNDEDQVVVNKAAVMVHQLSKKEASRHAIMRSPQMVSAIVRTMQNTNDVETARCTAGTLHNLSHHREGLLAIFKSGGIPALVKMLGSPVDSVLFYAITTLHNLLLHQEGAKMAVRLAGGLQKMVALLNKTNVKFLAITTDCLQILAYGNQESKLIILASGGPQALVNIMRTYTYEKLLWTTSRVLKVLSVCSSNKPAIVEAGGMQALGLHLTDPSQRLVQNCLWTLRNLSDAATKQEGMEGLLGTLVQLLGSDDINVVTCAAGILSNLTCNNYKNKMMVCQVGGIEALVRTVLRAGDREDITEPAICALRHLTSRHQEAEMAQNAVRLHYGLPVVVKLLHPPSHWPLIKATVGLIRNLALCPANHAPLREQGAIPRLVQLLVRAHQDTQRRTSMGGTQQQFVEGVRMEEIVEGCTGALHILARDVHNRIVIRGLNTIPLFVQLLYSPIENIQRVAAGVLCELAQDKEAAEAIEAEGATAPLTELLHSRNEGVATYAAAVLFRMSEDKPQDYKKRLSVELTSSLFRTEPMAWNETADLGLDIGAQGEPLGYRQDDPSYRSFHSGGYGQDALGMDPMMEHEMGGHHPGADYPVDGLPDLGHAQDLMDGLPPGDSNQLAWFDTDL
Kind of experiment: fluorescence polarization competition; full-length beta-catenin with 5FAM-labelled TCF4 10-53 peptide as competitor. On the procedure:
as §1

Experiment [4] addresses T3, full-length beta-Catenin (Uniprot ID …). In words: AlphaScreen competition; full-length beta-catenin with biotin-labelled TCF4 10-53 peptide as competitor. On the procedure:
Equal volume of the titrated peptide was added to the plate and incubated for 15 minutes at 20° C. Then 4 uL of donor and 4 uL acceptor beads at 10 ug/mL were added to the plate, for a 16 uL reaction pool and protected from light for 60 minutes at 20° C. prior to read. Reads were performed on a CLARIOstar plate reader (BMG Labtech) in duplicate, and data were fitted to a 1:1 binding model with hill slope using an in-house script. All provided concentrations are final concentrations.
A general note: In Alpha technology, singlet oxygen from a donor bead excites a nearby acceptor bead.

B1: I-1544 (peptide)
peptide: XDSXDEAAFQXFXQ
modifications: not fully specified; N-terminal Ac; PL3 at 1, B5 at 4, S8 at 11 (staples PL3-B5 and B5-S8 by olefin metathesis); Hse at 3; BztA at 13; C-terminal NH2
notes: Stapled peptide composition; earlier eluting HPLC peak (staple isomer); also called Ac-PL3-Asp-Hse-B5-Asp-Glu-Ala-Ala-Phe-Gln-S8-Phe-BztA-Gln-NH2
Turning to B1, the “NanoBRET Abs IC50” value in experiment [1] was more than 20000 nM. For the same molecule, the concentration for half-maximal inhibition (IC50) in experiment [2] was 61 nM.

B2: I-1545 (peptide)
peptide: XDSXDEAAFQXFXQ
modifications: not fully specified; N-terminal Ac; PL3 at 1, B5 at 4, S8 at 11 (staples PL3-B5 and B5-S8 by olefin metathesis); Hse at 3; BztA at 13; C-terminal NH2
notes: Stapled peptide composition; later eluting HPLC peak (staple isomer); also called Ac-PL3-Asp-Hse-B5-Asp-Glu-Ala-Ala-Phe-Gln-S8-Phe-BztA-Gln-NH2
Turning to B2, in experiment [1], the “NanoBRET Abs IC50” value was more than 20000 nM. The molecule further yielded a half-maximal inhibitory concentration (IC50) in experiment [2] of 26 nM.

B3: I-1546 (peptide)
peptide: Ac-[αAllylPro]D[hSer][B5(15)]DEAAFL[S8]F[Bta]Q-NH2
modifications: staple 1-4, 4-11
notes: Stapled peptide composition; also called Ac-PL3-Asp-Hse-B5-Asp-Glu-Ala-Ala-Phe-Leu-S8-Phe-BztA-Gln-NH2
In the case of B3, the “NanoBRET Abs IC50” value in experiment [1] was 37900 nM. Further, in experiment [2], the half-maximal inhibitory concentration (IC50) was 71 nM.

B4: I-1550 (peptide)
peptide: Ac-[αAllylPro]DF[B5(23)]DEAAFL[S8]F[Bta]Q-NH2
modifications: staple 1-4, 4-11
notes: Stapled peptide composition; also called Ac-PL3-Asp-Phe-B5-Asp-Glu-Ala-Ala-Phe-Leu-S8-Phe-BztA-Gln-NH2
As to B4, the “NanoBRET Abs IC50” value in experiment [1] was found to be 15300 nM. In addition, the concentration for half-maximal inhibition (IC50) in experiment [2] stood at 22 nM.

B5: I-1553 (peptide)
peptide: Ac-[αAllylPro]DK[B5(23)]DEAAFL[S8]F[Bta]Q-NH2
modifications: staple 1-4, 4-11
notes: Stapled peptide composition; also called Ac-PL3-Asp-Lys-B5-Asp-Glu-Ala-Ala-Phe-Leu-S8-Phe-BztA-Gln-NH2
In the case of B5, the “NanoBRET Abs IC50” value in experiment [1] was more than 20000 nM. Also, in experiment [2], the half-inhibitory concentration (IC50) was 133 nM.

B6: I-1552 (peptide)
peptide: Ac-[αAllylPro]DK[B5(23)]DEAAFQ[S8]F[Bta]Q-NH2
modifications: staple 1-4, 4-11
notes: Stapled peptide composition; also called Ac-PL3-Asp-Lys-B5-Asp-Glu-Ala-Ala-Phe-Gln-S8-Phe-BztA-Gln-NH2
B6: in experiment [1], the “NanoBRET Abs IC50” value was more than 20000 nM. The concentration for half-maximal inhibition (IC50) in experiment [2] turned out to be 56 nM.

B7: I-1551 (peptide)
peptide: Ac-[αAllylPro]DF[B5(23)]DEAAF[hSer][S8]F[Bta]Q-NH2
modifications: staple 1-4, 4-11
notes: Stapled peptide composition; also called Ac-PL3-Asp-Phe-B5-Asp-Glu-Ala-Ala-Phe-Hse-S8-Phe-BztA-Gln-NH2
With B7, the “NanoBRET Abs IC50” value in experiment [1] stood at 19800 nM. The molecule further registered an IC50 in experiment [2] of 16 nM.

B8: I-1547 (peptide)
peptide: Ac-[αAllylPro]D[hSer][B5(15)]DEAAF[hSer][S8]F[Bta]Q-NH2
modifications: staple 1-4, 4-11; not fully specified; printed as Ac-PL3-Asp-Hse-B5-Asp-Glu-Ala-Ala-Phe-Hse-S8-Phe-BztA-Gln-NH2
notes: Stapled peptide composition; Same description as I-1548; earlier eluting HPLC peak (staple isomer); also called Ac-PL3-Asp-Hse-B5-Asp-Glu-Ala-Ala-Phe-Hse-S8-Phe-BztA-Gln-NH2
As to B8, the “NanoBRET Abs IC50” value in experiment [1] is more than 20000 nM. In addition, the half-inhibitory concentration (IC50) in experiment [2] was 68 nM.

B9: I-1554 (peptide)
peptide: Ac-[αAllylPro]DK[B5(23)]DEAAF[hSer][S8]F[Bta]Q-NH2
modifications: staple 1-4, 4-11
notes: Stapled peptide composition; also called Ac-PL3-Asp-Lys-B5-Asp-Glu-Ala-Ala-Phe-Hse-S8-Phe-BztA-Gln-NH2
Consider B9, for which the “NanoBRET Abs IC50” value in experiment [1] is more than 20000 nM. Also, the concentration for half-maximal inhibition (IC50) in experiment [2] is 63 nM.

B10: I-289 (peptide)
peptide: XDAXDDAAFVXFW
modifications: not fully specified; N-terminal Ac; PL3 at 1; B5 at 4; S8 at 11; C-terminal NH2; staples PL3(1)-B5(4) and B5(4)-S8(11) by olefin metathesis
notes: Stapled (stitched) peptide; also called Ac-PL3-Asp-Ala-B5-Asp-Asp-Ala-Ala-Phe-Val-S8-Phe-Trp-NH2
Consider B10, for which the EC50 in experiment [3] amounted to 5000 nM; in experiment [4] it was 626 nM.

B11: I-262 (peptide)
peptide: XDAXDDAAFVXFWQ
modifications: not fully specified; N-terminal Ac; PL3 at 1; B5 at 4; S8 at 11; 34FF at 12; C-terminal NH2; staples PL3(1)-B5(4) and B5(4)-S8(11) by olefin metathesis
notes: Stapled (stitched) peptide; also called Ac-PL3-Asp-Ala-B5-Asp-Asp-Ala-Ala-Phe-Val-S8-34FF-Trp-Gln-NH2
Consider B11, for which the results for the EC50 in experiment [3] and in experiment [4] were 5000 nM and 967 nM, respectively.

B12: I-263 (peptide)
peptide: XDAXDDAAFVXFWQ
modifications: not fully specified; N-terminal Ac; PL3 at 1; B5 at 4; S8 at 11; 34FF at 12; C-terminal NH2; staples PL3(1)-B5(4) and B5(4)-S8(11) by olefin metathesis
notes: as for B11
Turning to B12, the values for the half-maximal effective concentration (EC50) in experiment [3] and in experiment [4] were 5000 nM and 864 nM, respectively.

B13: I-275 (peptide)
peptide: XDAXDDAAFVXXWQ
modifications: not fully specified; N-terminal Ac; PL3 at 1; B5 at 4; S8 at 11; 1NapA at 12; C-terminal NH2; staples PL3(1)-B5(4) and B5(4)-S8(11) by olefin metathesis
notes: Stapled (stitched) peptide; also called Ac-PL3-Asp-Ala-B5-Asp-Asp-Ala-Ala-Phe-Val-S8-1NapA-Trp-Gln-NH2
As for B13, the EC50 was 5000 nM in experiment [3] and 859 nM in experiment [4].

As usually defined, the IC50 is the concentration that inhibits the measured activity by half. A lower IC50 goes with greater potency in that assay. The EC50 is the midpoint of the concentration-response curve. A high value points to lower potency in that assay.
